Measured values taken from patent WO2024096022A1 (dated 2024).

T1: human AdipoR2 protein (human, UniProt Q86V24 1-386)
T1 construct: Stably expressed on CHO cells together with EGFP as a separate expression marker; also called adiponectin receptor 2; hAdipoR2
T1 sequence: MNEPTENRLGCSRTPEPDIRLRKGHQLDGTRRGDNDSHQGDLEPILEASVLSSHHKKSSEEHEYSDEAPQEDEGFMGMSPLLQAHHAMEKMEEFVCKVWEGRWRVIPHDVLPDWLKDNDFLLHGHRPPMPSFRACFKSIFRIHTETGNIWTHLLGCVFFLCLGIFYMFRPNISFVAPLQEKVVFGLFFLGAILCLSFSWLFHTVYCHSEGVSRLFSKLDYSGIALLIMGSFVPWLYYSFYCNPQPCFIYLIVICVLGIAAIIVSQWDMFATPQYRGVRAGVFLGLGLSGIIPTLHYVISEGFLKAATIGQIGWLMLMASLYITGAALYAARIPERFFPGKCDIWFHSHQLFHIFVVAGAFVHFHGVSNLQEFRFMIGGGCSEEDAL

T2: human AdipoR1 protein (human, UniProt Q96A54 1-375)
T2 construct: Stably expressed on CHO cells together with EGFP as a separate expression marker; also called adiponectin receptor 1; hAdipoR1
T2 sequence: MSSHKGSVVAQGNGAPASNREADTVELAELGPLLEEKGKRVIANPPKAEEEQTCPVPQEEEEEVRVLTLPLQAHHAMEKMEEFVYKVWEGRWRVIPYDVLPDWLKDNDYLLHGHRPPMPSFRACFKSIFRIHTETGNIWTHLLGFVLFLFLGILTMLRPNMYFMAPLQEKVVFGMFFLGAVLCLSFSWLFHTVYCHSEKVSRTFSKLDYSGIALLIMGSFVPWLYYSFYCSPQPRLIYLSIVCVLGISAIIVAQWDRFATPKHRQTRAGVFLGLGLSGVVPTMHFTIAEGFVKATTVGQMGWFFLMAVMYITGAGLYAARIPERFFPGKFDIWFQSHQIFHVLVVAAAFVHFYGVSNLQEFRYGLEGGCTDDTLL


Columns and labels:
human AdipoR2 protein [1] = biological target: T1, human AdipoR2 protein; assay: fluorescent ligand binding to cells stably expressing human AdipoR2 (8200 Cellular Detection System)
human AdipoR2 protein [2] = biological target: T1, human AdipoR2 protein; assay: flow cytometry on human AdipoR2-expressing CHO cells against parental CHO cells
human AdipoR1 protein = biological target: T2, human AdipoR1 protein; assay: flow cytometry on human AdipoR1-expressing CHO cells against parental CHO cells

binding result (human AdipoR2 protein [1]) | binding result (human AdipoR2 protein [2]) | binding result (human AdipoR1 protein) | Binder
binds |  |  | fluorescently labeled human plasma-derived adiponectin (ligand, UniProt Q15848 19-244, looked up, fluorescent label (site not stated)) ETTTQGPGVLLPLPKGACTGWMAGIPGHPGHNGAPGRDGRDGTPGEKGEKGDPGLIGPKGDIGETGVPGAEGPRGFPGIQGRKGEPGEGAYVYRSAFSVGLETYVTIPNMPIRFTKIFYNQQNHYDGSTGKFHCNIPGLYYFAYHITVYMKDVKVSLFKKDKAMLFTYDQYQENNVDQASGSVLLHLEVGDQVWLQVYGEGERNGLYADNDNDSTFTGFLLYHDTN
 | binds | binds | mouse-human chimeric antibody WT (antibody, V domains shown) VH: DVKLVESGEGLVKPGGSLKLSCAASGFTFSSYAMSWVRQTPEKRLEWVAYISSGGDYIYYADTVKGRFTISRDNARNTLYLQMSSLKSEDTAMYYCTRALEAMDYWGQGTSVTVSS VL: ETTVTQSPASLSMAIGEKVTIRCITSTDIDDDMNWYQQKPGEPPKLLISEGNTLRPGVPSRFSSSGYGTDFVFTIENMLSEDVADYYCLQSDNLPFTFGSGTKLEIK
